# Where a chain is given by its changes, count along the chain named.
# T1: Biotinylated CD96 antigen (human, UniProt P40200-2 22-503, limits assumed, biotinylated)
# T1 sequence (looked up): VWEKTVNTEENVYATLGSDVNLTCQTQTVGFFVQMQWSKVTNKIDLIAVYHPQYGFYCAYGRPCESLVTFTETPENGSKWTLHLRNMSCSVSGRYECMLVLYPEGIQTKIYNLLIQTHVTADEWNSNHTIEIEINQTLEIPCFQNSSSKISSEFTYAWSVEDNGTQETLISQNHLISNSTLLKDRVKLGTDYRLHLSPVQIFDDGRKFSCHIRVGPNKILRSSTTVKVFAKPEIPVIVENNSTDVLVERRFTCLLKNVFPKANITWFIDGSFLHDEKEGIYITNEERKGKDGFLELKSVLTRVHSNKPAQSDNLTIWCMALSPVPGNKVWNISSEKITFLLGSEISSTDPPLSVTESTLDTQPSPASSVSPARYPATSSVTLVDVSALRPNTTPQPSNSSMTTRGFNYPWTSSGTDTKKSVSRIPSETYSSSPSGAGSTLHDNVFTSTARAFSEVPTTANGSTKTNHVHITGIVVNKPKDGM
# T2: CD96 epitope peptide #3 IAVYHPQYGFYCAYGRPCES (47-66) (human)
# T2 construct: also called 3# peptides; #3 antigen fragment
# T2 peptide: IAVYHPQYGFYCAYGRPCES
# B1: h1719-010 (antibody, V domains shown)
# VH: EVTLKESGPVLVKPTETLTLTCTVSGFSLSSYGVSWVRQPPGKGLEWLGVIWGDGNTNYHSVLISRLTISKDTSKSQVVLTLTNMDPVDTATYYCAKQNYYGSRYGYPIDYWGQGTTVTVSS
# VL: DIQMTQSPSSVSASVGDRVTITCKATQDVGTAVAWYQQKPGKAPKLLIYWASTRHTGVPSRFSGSGSGTDFTLTISSLQPEDFATYYCQQYGSSVLTFGGGTKVEIK
# notes: Only variable regions are tied to this name
# B2: h1718-012 (antibody, V domains shown)
# VH: EVQLVQSGAEVKKPGASVKVSCKASGYTITDYNMNWVRQAPGQRLEWIGVINPSYGITDYNQNFKDRVTITVDTSASTAYMELSSLRSEDTAVYYCAIQLRLPGYFDVWGQGTTVTVSS
# VL: DIQMTQSPSSLSASVGDRVTITCKASQDINQYLNWFQQKPGKAPKTLIYRANRLVDGVPSRFSGSGSGQDYTLTISSLQPEDFATYYCLKYDEFPYTFGGGTKVEIK
# notes: as for B1
# B3: h1721-003 (antibody, V domains shown)
# VH: EVTLKESGPVLVKPTETLTLTCTVSGFSLSSYGVNWIRQPPGKALEWLGVIWGDGSTNYHSALISRLTISKDTSKSQVVLTLTNMDPVDTATYYCAKNYFYGSRYGYAMDSWGQGTTVTVSS
# VL: DIQMTQSPSSLSASVGDRVTITCRASENIYSSLAWYQQKPGKAPKLLIYNAKTLIEGVPSRFSGSGSGTDFTLTISSLQPEDFATYYCQHHYGTPYTFGGGTKVEIK
# notes: Only variable regions are tied to this name; also called M721-003
# B4: ch1720 (antibody, human IgG4 S228P, kappa, V domains shown)
# VH: EFQLQQSGPELVKPGASVKISCKASAYSLTDYNMNWVKQSNGKSLEWIGVINPSYGISSYNQKFKGKATLTVDQSSSTAYMHLNSLTSEDSAVYYCARQLRLPGYFDVWGTGTTVTVSS
# VL: DIKMTQSPSSKNASLGERVTITCKASQDINSYLNWFQQKPGKSPKTLIYRASRLVDGVPSRFSGSGSGQDYSLTISSLEYEDMGIYYCLKYDEFPYTFGGGTKLEIKR
# notes: also called chimeric antibody corresponding to m1720
# B5: h1722-010 (antibody, V domains shown)
# VH: EVQLVQSGAEVKKPGSSVKVSCKASGGTFSDYWMHWVRQAPGQGLEWIGMLHPNSGTTSFNEKFKIRVTITADKSTSTAYMELSSLRSEDTAVYYCASDYSGPFAYWGQGTLVTVSS
# VL: DIQLTQSPSSLSASVGDRVTITCSASSSVNYIHWYQQKPGKAPKRWIFDTSKLASGVPSRFSGSGSGTDYTLTISSLQPEDFATYYCQQWRSNPLTFGQGTKLEIK
# notes: Only variable regions are tied to this name; also called M722-010
# B6: h1719-014 (antibody, V domains shown)
# VH: B1 VH with Q98N, N99Y, I109L
# VL: B1 VL with A43S, S60E, Y87F
# notes: Only variable regions are tied to this name; also called M719-014
# B7: ch1718 (antibody, human IgG4 S228P, kappa, V domains shown)
# VH: B4 VH with L29I, S58T, S59D, K63N, G66D, H82Q, R98I, T116I
# VL: B4 VL with K11M, N12Y, S31N, S52N, L104V
# notes: also called chimeric antibody corresponding to m1718
# B8: ch1719 (antibody, human IgG4 S228P, kappa, V domains shown)
# VH: QVQLKESGPGLVAPSQSLSITCTVSGFSLISYGVSWVRQPPGKGLEWLGVIWGDGNTNYHSVLISRLSIRKDDSKSQVFLKLNSLQTDDTATYYCAKNNYYGSRYGYPMDYWGQGTSVTVSS
# VL: DIVMTQSHKFMSTSVGDRVSITCKATQDVGTAVAWYQQKPGHSPKLLIYWASTRHTGVPERFTGSGSGTDFTLTIDNVQSEDLADYFCQQYGSSVLTFGAGTKVELRR
# notes: also called chimeric antibody corresponding to m1719
# B9: ch1721 (antibody, human IgG4 S228P, kappa, V domains shown)
# VH: B8 VH with S35N, N56S, V62A, R70S, K81N, N99Y, Y100F, P108A, Y111S, T116I
# VL: DIQMTQSPASLSAAVGETVTITCRASENIYSSLAWYQQKQGKSPQLLVYNAKTLIETVASRFSGSGSGTQYSLKINSLQPEDFGSFYCQHHYGTPYTFGGGTKLEIKR
# notes: also called chimeric antibody corresponding to m1721
# Biological target: T1, Biotinylated CD96 antigen
# Experiment: competition ELISA: antibody B pre-incubated with biotinylated CD96 antigen, added to a plate coated with antibody A, HRP-streptavidin, OD450; competitor: coated h1719-014 (named by the legend paragraph 84)
# Experimental: (§1) Competitive assays of different antibodies binding to CD96 protein were used to classify binding epitopes of the antibodies. The specific experimental methods are as follows:
# (§2) Antibody A was diluted to a concentration of 2 μg/ml with PBS buffer (Shanghai Yuanpei Biotechnology Co., Ltd. Cat No. B320), pH 7.4, added to a 96-well microtiter plate (Corning, Cat No. CLS3590-100EA) at a volume of 50 μl/well, and coated at 4° C. overnight. After discarding the liquid, 250 μl/well of 5% skim milk (BD skim milk, Cat No. 232100) blocking solution diluted with PBS was added, and the plate was incubated at 37° C. for 3 hours. After blocking, the blocking solution was discarded, and the plate was washed 5 times with PBST buffer (pH 7.4 PBS containing 0.05% tween-20) and stored for later use. Antibody B was diluted to 40 μg/ml and 8 μg/ml with 1% BSA, and Biotinylated CD96 antigen was simultaneously diluted to 4 μg/mL. Subsequently, antibody B and antigen were mixed in a 1:1 volume ratio, pre-incubated at 37° C. for 45 minutes, added into the enzyme plate coated with antibody A, thus incubating the plate in an incubator at 37° C. for 1.5 hours. After incubation, the plate was washed for 5 times with PBST, and 50 μl/well of HRP-labeled streptavidin (Sigma, Cat No. 52438) diluted with sample dilution was added, followed by incubating the plate at 37° C. for 1 hour. After washing the plate 5 times with PBST, 50 μl/well of TMB chromogenic substrate (KPL, Cat No. 52-00-03) was added for color development, followed by adding 50 μl/well of 1M H₂SO₄ to stop the reaction. The absorption value was read at 450 nm with a NOVOStar microplate reader, and the OD value was used to determine whether A and B CD96 antibodies compete with each other. Antibodies that compete with each other fall into the same class of antibodies, otherwise belong to different classes of antibodies (see FIG. 3 and Table 18).
row,Binder,IC50 (read off the curve) [nM]
1,B1,~0.4
2,B2,~0.4
3,B3,~0.4
4,B4,~1

# Biological target: T1, Biotinylated CD96 antigen
# Experiment: competition ELISA: antibody B pre-incubated with biotinylated CD96 antigen, added to a plate coated with antibody A, HRP-streptavidin, OD450; competitor: coated h1721-003
# Experimental: as §1, §2
row,Binder,IC50 (read off the curve) [nM]
1,B1,~0.4
2,B2,~0.4
3,B3,~0.4

# Biological target: T1, Biotinylated CD96 antigen
# Experiment: competition ELISA, antibody B premixed with biotinylated CD96; competitor (coated antibody A): h1722-010
# Experimental: as §1, §2
row,Binder,competition (percent) [%]
1,B2,-11.1
2,B3,-0.3
3,B4,-2.4
4,B5,100
5,B6,28.6

# Biological target: T1, Biotinylated CD96 antigen
# Experiment: competition ELISA, antibody B premixed with biotinylated CD96; competitor (coated antibody A): h1718-012
# Experimental: as §1, §2
row,Binder,competition (percent) [%]
1,B2,100
2,B3,73.6
3,B4,94.4
4,B5,-3.5
5,B6,44.3

# Biological target: T1, Biotinylated CD96 antigen
# Experiment: competition ELISA: antibody B pre-incubated with biotinylated CD96 antigen, added to a plate coated with antibody A, HRP-streptavidin, OD450; competitor: coated ch1720
# Experimental: as §1, §2
row,Binder,IC50 (read off the curve) [nM]
1,B1,~0.5
2,B2,~0.5
3,B3,~0.4

# Biological target: T1, Biotinylated CD96 antigen
# Experiment: competition ELISA, antibody B premixed with biotinylated CD96; competitor (coated antibody A): ch1720
# Experimental: as §1, §2
row,Binder,competition (percent) [%]
1,B2,103
2,B3,92.6
3,B4,100
4,B5,-11.5
5,B6,67.7

# Biological target: T2, CD96 epitope peptide #3 …
# Experiment: FACS on CD96-CHOs cells after pre-incubation of the antibody with the peptide; a fall of the MFI against antibody alone shows that the peptide occupies the antibody
# Experimental: In order to verify that the binding of the antibody to CD96 protein polypeptide fragment is specific, we designed the following FACS for verification. While polypeptide fragments were incubated and bound to an antibody, epitopes of the antibody binding to CD96 protein were occupied, and then the signal of the antibody binding to CD96 protein on the cell surface decreased. The specific experimental methods are as follows:
# The antibody samples were diluted to 1.2 μg/mL with 1% BSA, and the peptides were diluted to 40 μg/mL synchronously. The peptides and antibody sample were mixed at a volume ratio of 1:1 and pre-incubated at 37° C. for 90 minutes. CD96-CHOs cells were collected and washed once in PBS, then dispensed according to 0.5×10⁶/test. The cells with 100 μL of peptide-antibody mixture were resuspended, incubated at 4° C. for 1 hour, followed by washing 3 times with 1% BSA. Cells were resuspended with 100 μL dilution (1:400, 1:40, 1:100) of Alexa Fluor 488 anti-human IgG Fc (thermofisher, A-11013), PE goat anti-mouse IgG (Biolegend, Cat No. 405307), or PE goat anti-Rat IgG (Biolegend, Cat No. 405406), incubated at 4° C. for 40 minutes, followed by washing 3 times with 1% BSA. The cells were resuspended with 200 μL of 1% BSA, MFI of each sample was read on a flow cytometer BD FACSCanto II, and the data were analyzed with GraphPad Prism 5 to make a histogram. MFI difference between the sample without polypeptides incubation and the one incubated with polypeptides was used to determine the antigenic epitope recognized by the CD96 antibody.
row,Binder,binding result
1,B7,binds
2,B8,binds
3,B9,binds

# Reference: patent US20200347130A1 (JIANGSU HENGRUI MEDICINE, published 2020)
